Data on 13 molecules can be found in patent US20230075753A1 (UCB, published 2023).

Positions count from the first letter of the chain named. In names and notes the source's numbering stands.

The Kd is a measure of binding affinity in units of concentration. As a reminder, the koff is the first-order rate constant of dissociation. Broadly, the kon is the rate constant with which the complex forms. A higher kon goes with fast association.

One assay concerns the target T1, Active cyno KLK5 (cynomolgus monkey, UniProt Q9Y337 67-293 (human entry)).
T1 chain: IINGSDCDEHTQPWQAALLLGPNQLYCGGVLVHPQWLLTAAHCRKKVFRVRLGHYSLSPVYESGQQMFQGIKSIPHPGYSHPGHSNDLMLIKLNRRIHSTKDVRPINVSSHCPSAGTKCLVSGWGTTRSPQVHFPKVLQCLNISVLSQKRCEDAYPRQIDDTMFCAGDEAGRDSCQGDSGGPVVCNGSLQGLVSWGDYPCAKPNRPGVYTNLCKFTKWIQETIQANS
Description: cell-based or functional assay.

Assay [1] concerns the target T2, Active human KLK5 (human, UniProt Q9Y337 67-293). Description: cell-based or functional assay.
Assay [2] concerns the target T2, Active human KLK5. Description: SPR, Biacore T200, 25 C; IgG from supernatant captured on anti-human Fc, human KLK5 as analyte (20-0.08 nM), 1:1 model. On the procedure: (§1) A goat anti-human IgG Fc specific antibody (Jackson ImmunoResearch) was immobilized on a CM5 Sensor Chip via amine coupling chemistry to a level of approximately 6000RU. Each analysis cycle consisted of capture of the anti-KLK5 IgG from supernatants to the anti Fc surface, injection of KLK5 analyte (prepared in house) for 180 s at 30 μl/min followed by 600 s dissociation. At the end of each cycle the surface was regenerated at a flowrate of 10 μL/min using a 60 s injection of 50 mM HCl followed by a 30 s injection of 5 mM NaOH and a final 60 s injection of 50 mM HCl. Human KLK5 was titrated from 20 nM to 0.08 nM (5×3-fold serial dilutions) for the supernatant in HBS-EP+ running buffer (GE Healthcare®) supplemented to a final concentration of 300 mM NaCl. Buffer blank injections were included to subtract instrument noise and drift. Kinetic parameters were determined using a 1:1 binding model using Biacore T200 Evaluation software (version 3.0). Experiments were carried out at 25° C.

Assay [3] concerns the target T2, Active human KLK5. The experiment in a line: SPR; repeats Table 3 (footnote: as described in example 4 and Table 3). (Surface plasmon resonance follows binding to a sensor surface in real time, without labels.)
Assay [4] has as its target T2, Active human KLK5. Description: SPR, Biacore T200, 25 C; mIgG captured on anti-mouse Fc, human KLK5 as analyte (20-0.25 nM), 1:1 model. On the procedure:
The kinetics of murine IgG molecules binding to human KLK5 were assessed by surface plasmon resonance (Biacore T200, (GE Life Sciences™) at 25° C.
Kinetic parameters were determined using a 1:1 binding model using Biacore T200 Evaluation software.

Assay [5] addresses T2, Active human KLK5. The experiment in a line: SPR, Biacore T200, 25 C; IgG from supernatant captured on anti-human Fc, human KLK5 as analyte (20-0.08 nM), 1:1 model; second run of the chimera; second run of the chimera (start and end of the assay). On the procedure: as §1
The target in assay [6] is T2, Active human KLK5. Description: SPR, Biacore T200, 25 C; IgG from supernatant captured on anti-human Fc, human KLK5 as analyte (20-0.08 nM), 1:1 model; run at the start or end of the assay. On the procedure:
as §1

B1: Rabbit antibody 10236 (rabbit IgG) (antibody, V domains shown)
VL: AYDMTQTPASVEVAVGGTVTIKCQASQSISSWLAWYQQKPGQPPKLLIYLASTLASGVSSRFKGSGSGTQFTLTISGVECADAATYYCQQGYTNSNIINTFGGGTEVVVK
VH: QSVEESGGRLVTPGTPLTLTCTVSGFPLSNYAMSWVRQAPGKGLEWIGDIYPSDIIDYASWAKGRFTISQTSTTVELKITGPTTEDTATYFCARDNNDYGLDIWGPGTLVTVSS
In the case of B1, the “IC50 (M), inhibition of kallikrein protease activity (fluorogenic peptide substrate)” value (“IC50 (M), inhibition” for short) was 2.76e-11 M with Active cyno KLK5 and 1.74e-10 M with Active human KLK5 [1].

B2: Humanized antibody 10236 gL6 gH9 (antibody, V domains shown)
VH: EVQLQESGPGLVKPSGTLSLTCAVSGFPLSNYAMSWVRQPPGKGLEWIGDIYPSDIIDYASWAKGRVTISQDSSKTQVSLKLSSVTAADTAVYYCARDNNDYGLDIWGQGTLVTVSS
VL: AYDMTQSPSSLSASVGDRVTITCQASQSISSWLAWYQQKPGKAPKLLIYLASTLASGVPSRFSGSGSGTDFTLTISSLQPEDFATYYCQQGYTNSNIINTFGGGTKVEIKR
notes: Tested as IgG from supernatant captured by anti-human Fc
Consider B2, for which, in the assay with Active human KLK5 [2], the Kd stood at 0.475 nM, the dissociation rate constant (koff) came to 0.00091 s⁻¹ and the association rate constant (kon) worked out at 1.91e+06 M⁻¹ s⁻¹.

B3: Humanized antibody 10236 gL5 gH9 (antibody, V domains shown)
VH: B2 VH
VL: B2 VL with S63K
notes: as for B2
As for B3, in the assay with Active human KLK5 [2], the Kd amounted to 0.484 nM, the dissociation rate constant (koff) came out at 0.000929 s⁻¹ and the kon is 1.92e+06 M⁻¹ s⁻¹.

B4: Humanized antibody 10236 gL5 gH10 (antibody, V domains shown)
VH: B2 VH with Q71V
VL: B2 VL with S63K
notes: as for B2
In the assay with Active human KLK5 [2], B4 gave a Kd of 0.546 nM, a koff of 0.00107 s⁻¹ and a kon of 1.97e+06 M⁻¹ s⁻¹.

B5: Humanized antibody 10236 gL6 Q24R gH12 (antibody, V domains shown)
VH: B2 VH with T76N
VL: B2 VL with Q24R
In the case of B5, in the assay with Active human KLK5 [2], binding was put at a Kd of 0.333 nM, the koff is 0.000669 s⁻¹ and the kon is 2.01e+06 M⁻¹ s⁻¹.

B6: Humanized antibody 10236 gL5 gH12 (antibody, V domains shown)
VH: B2 VH with T76N
VL: B2 VL with S63K
notes: as for B2
In the assay with Active human KLK5 [2], B6 had a Kd of 0.331 nM, an off-rate (koff) of 0.000669 s⁻¹ and an on-rate (kon) of 2.03e+06 M⁻¹ s⁻¹.

B7: Humanized antibody 10236 gL6 gH11 (antibody, V domains shown)
VH: B2 VH with S73K
VL: B2 VL
notes: as for B2
In the assay with Active human KLK5 [2], B7 gave a Kd of 0.475 nM, a dissociation rate constant (koff) of 0.000802 s⁻¹ and a kon of 1.69e+06 M⁻¹ s⁻¹.

B8: Humanized antibody 10236 gL5 gH11 (antibody, V domains shown)
VH: B2 VH with S73K
VL: B2 VL with S63K
notes: as for B2
In the assay with Active human KLK5 [2], B8 showed a dissociation constant (Kd) of 0.481 nM, an off-rate (koff) of 0.000811 s⁻¹ and an on-rate constant (kon) of 1.69e+06 M⁻¹ s⁻¹.

B9: Humanized antibody 10236 gL6 Q24K gH12 (antibody, V domains shown)
VH: B2 VH with T76N
VL: B2 VL with Q24K
As to B9, in the assay with Active human KLK5 [2], binding was characterised by a dissociation constant (Kd) of 0.337 nM, the koff was found to be 0.000687 s⁻¹ and the kon is 2.04e+06 M⁻¹ s⁻¹.

B10: Humanized antibody 10236 gL6 gH10 (antibody, V domains shown)
VH: B2 VH with Q71V
VL: B2 VL
notes: as for B2
In the case of B10, in the assay with Active human KLK5 [2], the Kd was 0.541 nM, the koff worked out at 0.00105 s⁻¹ and the kon turned out to be 1.93e+06 M⁻¹ s⁻¹.

B11: Rabbit antibody 10236 mIgG (rabbit variable regions on mouse constant regions) (antibody)
light: AYDMTQTPASVEVAVGGTVTIKCQASQSISSWLAWYQQKPGQPPKLLIYLASTLASGVSSRFKGSGSGTQFTLTISGVECADAATYYCQQGYTNSNIINTFGGGTEVVVKRTDAAPTVSIFPPSSEQLTSGGASVVCFLNNFYPKDINVKWKIDGSERQNGVLNSWTDQDSKDCTYSMSSTLTLTKDEYERHNSYTCEATHKTSTSPIVKSFNRNEC
heavy: QSVEESGGRLVTPGTPLTLTCTVSGFPLSNYAMSWVRQAPGKGLEWIGDIYPSDIIDYASWAKGRFTISQTSTTVELKITGPTTEDTATYFCARDNNDYGLDIWGPGTLVTVSSAKTTPPSVYPLAPGSAAQTNSMVTLGCLVKGYFPEPVTVTWNSGSLSSGVHTFPAVLQSDLYTLSSSVTVPSSTWPSETVTCNVAHPASSTKVDKKIVPRDCGCKPCICTVPEVSSVFIFPPKPKDVLTITLTPKVTCVVVDISKDDPEVQFSWFVDDVEVHTAQTQPREEQFNSTFRSVSELPIMHQDWLNGKEFKCRVNSAAFPAPIEKTISKTKGRPKAPQVYTIPPPKEQMAKDKVSLTCMITDFFPEDITVEWQWNGQPAENYKNTQPIMDTDGSYFVYSKLNVQKSNWEAGNTFTCSVLHEGLHNHHTEKSLSHSPGK
As to B11, the “IC50 (M), inhibition” value with Active cyno KLK5 amounted to 3.3e-11 M. Moreover, the “IC50 (M), inhibition” value in the assay with Active human KLK5 [1] is 2.4e-10 M. In the assay with Active human KLK5 [3], the affinity, expressed as Kd, was 0.172 nM; the koff was determined as 0.000517 s⁻¹; the kon came to 3e+06 M⁻¹ s⁻¹. In the assay with Active human KLK5 [4], this molecule had a Kd of 0.172 nM, a koff of 0.000517 s⁻¹ and a kon of 3e+06 M⁻¹ s⁻¹.

B12: Rabbit/human antibody 10236 (chimera) (antibody, human IgG4 S228P, kappa)
light: AYDMTQTPASVEVAVGGTVTIKCQASQSISSWLAWYQQKPGQPPKLLIYLASTLASGVSSRFKGSGSGTQFTLTISGVECADAATYYCQQGYTNSNIINTFGGGTEVVVKRTVAAPSVFIFPPSDEQLKSGTASVVCLLNNFYPREAKVQWKVDNALQSGNSQESVTEQDSKDCTYSLSSTLTLSKADYEKHKVYACEVTHQGLSSPVTKSFNRGEC
heavy: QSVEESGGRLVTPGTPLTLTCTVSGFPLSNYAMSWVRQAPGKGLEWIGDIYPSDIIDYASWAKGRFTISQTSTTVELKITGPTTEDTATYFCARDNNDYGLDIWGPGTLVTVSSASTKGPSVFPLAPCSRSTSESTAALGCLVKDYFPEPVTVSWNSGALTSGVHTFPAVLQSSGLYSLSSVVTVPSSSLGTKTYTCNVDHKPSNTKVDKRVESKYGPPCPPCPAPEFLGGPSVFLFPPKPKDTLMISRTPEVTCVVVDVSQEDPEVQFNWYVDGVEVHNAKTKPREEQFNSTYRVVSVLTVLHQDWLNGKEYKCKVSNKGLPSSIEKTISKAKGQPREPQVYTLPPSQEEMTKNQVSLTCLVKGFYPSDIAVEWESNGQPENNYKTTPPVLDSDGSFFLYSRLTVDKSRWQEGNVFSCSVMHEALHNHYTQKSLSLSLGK
notes: also called rabbit/human chimera antibody
For B12, in the assay with Active human KLK5 [5], binding was characterised by a dissociation constant (Kd) of 0.152 nM, the koff was determined as 0.000409 s⁻¹ and the association rate constant (kon) was 2.7e+06 M⁻¹ s⁻¹. In the assay with Active human KLK5 [6], this molecule gave a Kd of 0.168 nM, a koff of 0.000451 s⁻¹ and a kon of 2.69e+06 M⁻¹ s⁻¹.

B13: Rabbit antibody 10273 mIgG (rabbit variable regions on mouse constant regions) (antibody, V domains shown)
VH: QSVEESGGRLVTPGTPLTLTCTVSGFSLSSYGMSWVRQAPGKGLEWIGIISSSGSTYYASWAKGRFTISKTSTTVDLKIASPTTEDTATYFCARDHIYRYDDYGDYPTYYGMDPWGPGTLVTVSS
VL: AVVLTQTPSPMSAAVGGTVTISCQSSQSVYNNNDLAWYQQKPGQPPKLLIYRASTLASGVPSRFSGSGSGTQFTLTISGVQCDDAATYYCLGGYDDDVDTYTFGGGTEVVVKR
Consider B13, for which the “IC50 (M), inhibition” value with Active cyno KLK5 is 3.01e-10 M. For the same molecule, the “IC50 (M), inhibition” value with Active human KLK5 [1] stood at 3.48e-11 M. In the assay with Active human KLK5 [4], this molecule displayed a dissociation constant Kd of 0.16 nM, an off-rate constant (koff) of 0.000184 s⁻¹ and a kon of 1.14e+06 M⁻¹ s⁻¹.
